In the DeepSol protein solubility set:

Assay: soluble on expression in E. coli; label from the status in PepcDB or PDB records

Sequence	soluble on expression in E. coli
MSLSLLSKLDVSPLQFQDPSKDGSKIINLNLDGSGDPLRLSELGESDYSNSIKVRDNEYVTYHLSNDYSVLTIYSMNDALQNKTINIKLPVQSTNKQHTSIVFVKDEAFNVEFILRNSIYLKISIPIDFIINNSSELNEDWFYVLQPYDFSVRKPHMLHRVSDNFSVVFLEDGGLVGLTSHGETDLEPILFNDNSYLQSITRLFSKSKHSKNSKVVSCSNYQSNFLIVLTEDCILKIWDLKKLILINEYNLFDVNNSDFIAGGLFDSCGNYLHLFNNLLTIYLPFTNGLFQVGTLDVDSSDKLTFQSKIVIPSNLPASSLWSLTDMRMINPLDLNLPETFLNIIVLWKSGTMSKLQILNILNESVDSYEWIDASNKDLEETRIESDIESSDFSKTLFKLTSRYPKAIVDRAIKVLEENGISIPLQEALDEEYLANLETLLRDIKGGCDEASSLTLYNDEIIVINCLQKYNYSIYKINCSLEKTYFDINDDSEGHHHHHH	soluble
MSLSLSLAEARRLALAAQGFDGRRTRRSVQRRHLREMLARLGLLQIDSVNALVRSHYLPLFSRLGPYSMTLLDEAAWSVGRHRQLFEYWGHEASLLPLEHYPLMRWRMRQAADGQGIYQQLARFGREQQPLIRQVLQAVREQGALGAGSLSTRQERAGPWWDWSAEKHALEWLFAAGELTVAGRRGFERLYDLPERVFPAELLARPELSEAQAQRELLRMAASALGVATEKDLRDYYRLSPAQSRARLAELVEAGELLPVRVEGWSQPAYCPGEPQVPRRLGASALLSPFDSLVWERARAERLFDFRYRLEIYTPKEKRVYGYYVLPFLYNGRLVGRVDLRAERARERLVVHALHAEANGMDDAALHELAEQLRSMAAWLGLATVAIEGRGELAVRLRGVLLLEHHHHHH	not soluble
MSLSMCGNKISVIRPLPAEVVKKIAAGEIIARPSSAIKELIENSVDAGATEIRVNLSSNPLDFCEIIDNGSGVSEKDLMIICQRYTTSKTTDSIEGVRSLGFRGEALSSLSQNSHVTISSRTENENMRTVMTYSECEPVLDEIRYEEGPRGFHLKYENLFYNYEIRSKSLLSNINSEFISCLHLVQKYSIHFPNINFVFNRTSSPILDLNNLNNVSSQQSSGSGSGDSCSSQPNCNFSTSSRFDDYDSSDDELDITLTQKLEYDYHYFTKMYDDPKSDDLRTEYIRNVEKVSFDCLRVIKENIKRIYGLKVSNVLQEVVFNNFDDLFFNCKGLISHPNQPCKLDMFILFVNNRLIDLPNLRRMIFNTYNDITNNRYRRFVYLSIFVPYDQIDSNIHPTKKRIMIENQAEIVEQITKFFHDKITELIKSATTEGHHHHHH	soluble
MSLSMEFDAVIIGGGVSGCATFYTLSEYSSLKRVAIVEKCSKLAQISSSAKANSQTIHDGSIETNYTPEKAKKVRLSAYKTRQYALNKGLQNEVIFETQKMAIGVGDEECEFMKKRYESFKEIFVGLEEFDKQKIKELEPNVILGANGIDRHENIIGHGYRKDWSTMNFAKLSENFVEEALKLKPNNQVFLNFKVKKIEKRNDTYAVISEDAEEVYAKFVLVNAGSYALPLAQSMGYGLDLGCLPVAGSFYFVPDLLRGKVYTVQNPKLPFAAVHGDPDAVIKGKTRIGPTALTMPKLERNKCWLKGISLELLKMDLNKDVFKIAFDLMSDKEIRNYVFKNMVFELPIIGKRKFLKDAQKIIPSLSLEDLEYAHGFGEVRPQVLDRTKRKLELGEKKICEGHHHHHH	not soluble
MSLSNALVNPREAPAHGRFVPAPILAHRNCTQGALNMLEAKLKPHREYLLAQSAGQKLFLTLTVKPTAEARQARPDLSVVFVVDTSGSMREVVTEPTERTGRTTQVDGQVYEVVKGGKNKMQLMIEALRGIVTSTLIRPGDRLALVKFDDTAEVLVPFITASNQAQLAAAVDKLDWYSGGTHMGAGMRAGAGLLTGERGSRRMVLISDGQTFDAPLVEDQIGALAGLQVPVTVVAVGDEVNADLLTAIADRTQGQPLDIVPDTQNPQPPAIRASELPAALLGDLQKAAAEVVTGVALSVRTVKDVVLERVTRVQPTQTEVALRADGPLPLGNVDAGSGATFVLEFTLPARPATKMRLAQLGLTYEVPGANYRGEIPPLDVVVEFTGEEALAARIDPEVMGWVQQRNIEGLVAQATREANQNPEQAAKTLEQARAMTQRLGNGAMTQALDRAIGELGSSKTISLGTAKTLKIGAKTQTLSSDAALPSDEDIRRMTGEGGSHHHHHH	soluble
MSLSNGAPGTRIASAVGAFDVSRRASLTRGAGEAVERFALVPVPADSEHLLARNGSADPQIDFVSAGLGHVSALACDVPWYRAVDLLTGKPTQVPAPVVDYTPGRGESNSWDAFFDPSPNGAASGPSEAFAQTSAIAEVMERDAFLAAWRHKIPLQKFDAKSMPVAVRQGAEARGLSLLLVAARAAGVEPTLAFIPNNGSPLLTAVCIITEEKGPVCYGAVGLKAASDPVSALKGALQEGLQIRELFLTRAHSADPASASPVSAPSVATVTDDDSRAHFWTTAPAIAELRRWVGSFQPSNFPSKQPEPDLDALVKHLAGRNVRSHWVNLTHRLPAAIRELGWVAGKAVCPGAVPLTMDETKELFVMPGSEGHHHHHH	soluble
MSLSNLPADSFRVGVSEDRNRRCRRTMEDAHSFVYDFAGVKGQGYFAVFDGHAGKHAAEWCGQNFHEYLLDGLLIEPDTPVPDLMNKTFHLVDKRLSHLAHAAGTSSGCTAVTAFLRVEEMDDNDSFRKGFTNPGLQPRGLWEGKGEDELESQTSLQPSSRRSSMGGGTGGQMGGASAPGVNGRTGSLARRLSSKKIRDFVKGLTGGMEKNFDEAITEDEGVISAADGTRVEAIEPKSEKGVRRVLYTANVGDARAVLCRGGKAVRLTYDHKGSDAQEAKRITDAGGFVMNNRVNGVLAVTRSLGDASMKEFVVGAPYTTETTLDEQDEFLIVACDGLWDVCSDQEAVEIVHLVTDPQEASKRLLDHAMSNFSTDNLSVMVVRFNHEGHHHHHH	soluble
MSLSNTVHVFFGNKDSKVQVFKDKGTNQFANQVNLFMGDYLDTYFNRDKDTDLDKLKKYYGSGIDIKGQESRDIDMKLEHVSLVEIKSSVAVYDINYQIKDGDNWKSVLARINVPYKEKDGRYYVSDLPYYTDQSSYVADTVKGNSKLPTQSEVEGLSNKKLSGLKDYIVAFFKAYTSGDNSQMAPFSGAVSPLKSYEFEELDYAYFIKHKHSIIAVVQVTFKNEFGVKHQENFTLEVTESKQTSSYYVKSMKHGIDEDCRKEMKMDEGHHHHHH	soluble
MSLSNYWLGLDCGGSWLKAGLYDGAGREVAVQRLPLHALSPQPGWVERDMTELWQQCASVISKLLAHTGVSGSQIRGLGISAQGKGLFLLDKSDRPLGKAILSSDRRAMEIVQRWQKEAVPQKLYPLTRQTLWTGHPVSLLRWVKENEPQRYAQIGCVMMTHDYLRWCLTGVKGCEESNISESNLYNMATGQYDPRLTEWLGISEIDSALSPVVGSAEICGEITAQAAAITGLAAGTPVVGGLFDVVSTALCAGIEDESTLNAVMGTWAVTSGIAHGLRDHEAHPYVYGRYVNDGQYIVHEASPTSSGNLEWFTAQWGDLSFDEINQAVASLPKAGSDLFFLPFLYGSNAGLEMTCGFYGMQALHNRAHLLQALYEGVVFSHMTHLNRMRERFTEVCALRVTGGPAHSDVWMQMLADVSGLRIELPQVEETGCFGAALAARVGTGVYRDFREAQRDLQHPVRTLLPDMTAHALYQRKYRQYQDLIEALQGYHARIKEHALEGHHHHHH	soluble
MSLSPNDHCFSSHTETGPRKRNEDFSVYIDDLNSLLTCHHGRISVFGVFDGHMGTSASDYCSFKIFNYLVSNPHFPENIQIALKESFKQVNKGFLTIADVLHINAGTTAGVCVIDDKKITTANIGDTEIMFCKRNHKPLILSNKHSPNNEIEKQRIELAGGKVFYFHGWRVEGLLGVSRSIGDIALKKFVIDEADTNQIERSPDDEFVLIGCDGLWNVISYDFCADMVREYLYTNNYNGVDENGIKKPINKKDIARYLVDLALFKQSLDNVTVSIYFFSKEGHHHHHH	soluble
MSLSQANRVFITGRSALTASGATADETWNAIISGQCGIDEINFWELSEWSHRLGGEIKDFQPSKMLPDRKLIKVISRQDIMGINAAVQAVEHSKMIAYRDSLADADLFNEQTAIYVGSPGNKYFQQYDFIPLLAKTHGDMRSFANQLFDEVHPMWLLRILPNNVLAYTGITYGFKGPNHNVTNHAVGGTQAILEAYHAIRSGQAERAVVVAYDIGTEPQGLFYYEKLGVVSNRHLKPFDKEHDGTILAEGAAALVLESEASVKSRAATCYGEIVGGLSASEATGLFSIEADGQHLASLMGQTLSTSGINSEEIGLIVTHGNGNSKSDDSEALAIKSVFKQEEVPATAFKWSMGHTLCASGVLDAVLTTYALETKCVPGIANFQQIAPTCEGLSVSREHREIISNSYAMMINRGFASMNVCLVIKACEEGHHHHHH	not soluble
MSLSQSSRLSALPIFQASLSASQSPRYIFSSQNGTRIVFIQDNIIRWYNVLTDSLYHSLNFSRHLVLDDTFHVISSTSGDLLCLFNDNEIFVMEVPWGYSNVEDVSIQDAFQIFHYSIDEEEVGPKSSIKKVLFHPKSYRDSCIVVLKEDDTITMFDILNSQEKPIVLNKPNNSFGLDARVNDITDLEEGHHHHHH	soluble
MSLSRHSNTPATDASVLLVQLSDSHLFAEDGARLLGMDTAHSLEKVVERVAREQPRIDLILATGDVSQDGSLDSYTRFRRLSAPLDAPLRWFAGNHDEREPMQRATEGSDLLEQVVDVGNWRVVLLDSSIPGAVPGYLEEDQLELLRRAIDSAGERFLLVSFHHHPVPIGSDWMDPIGLRNPQALFDLLAPYPQVRCLLWGHIHQEFDRQRGPLRLLASPSTCVQFAPGSSDFTLDRLAPGYRWLRLHDDGRLETGISRVDDVVFEVDYDTAGYEGGSHHHHHH	soluble
MSLSRKNQELAKIFERMADILEFLGENPYRIRTYRRVANLISELQEDVEKAFYTRKLHHMPGIGESTLLKIEEFLKTGTIKKYEELRRMVPEDLLELLDAPGVGPKTLKIAYEQLGIRTKEEFIEALKKGKFNKIRGFGPVKALKILRGIELWEKSKERISLIEAYPMAQEVLKYMERIKDKYENISIAGSLRRMKETIGDIDILVSAKKENWKAIHEHFTKYPGLLEVLAKGETKSSIILDTGRQVDLRTVEPISWGAALQYFTGSKQHNIRIRDIAKEKGLKVNEYGVFKVDTEERIAGETEEGVYEVLGMQWIPPELREDWGEIELALEHKLPRLVELKDIKGDLHMHTNWSDGVNTLEEMVETAYKLGYQYIVIGDHSQSARVANGLDPERYKQQWKEIDRLNKEYNPKGFYILKGAEVDILPDGSLDLPDEVLEQFDFVVASVHSRFEQDNTERIIKAMENPYVNMIGHPTGKQYGYREGYPVNIEKLIQKAKETGTALELNTQRMDLSPENVRKCMEAGVYIGIVTDAHSARQLHLMFLGVGLARRGWATPDKVINTFDLEGLKEFVYKKRKNLAREGHHHHHH	soluble
MSLSRLLNDFNQSLKKGFIDKDISHKGNYTPKLLVNNKNEKVLSTIIDELQKCETFYFSVAFITESGLASLKAQLLDLSNKGVKGKILTSNYLGFNSPKMYGELLKLKNVEVRLTDIAGFHAKGYIFEHKDYSSMVIGSSNLTSNALKVNYEHNVLLSTMKNGDLVDSVKNEFELLWQKSTPLTEQWINSYKESFEYRSLEKLAEVEQTQMLLADKVKKSVEIVPNLMQAEALRSLKAIRDKTKDKALIISATGTGKTILCALDVREVNPNKFLFIVHNEGILNRAKEEFKKVLPIKNDSDFGLLTGKHRDVDAKYLFATIQTLSRDDNFKQFDENEFDYIVFDEAHRSAASTYQRVFNYFKPKFMLGMTATPERSDELSIFELFDYNIAYEIRLQAALESDILCPFHYFGVTDYVHQGIKEDDVTKLRYLTSDERVNYIIQKTDEGHHHHHH	not soluble
MSLSRLSSPQTFSRVFIVARGAATGHAVAPSSDNSIGYFEKIAYRFKGIPLPTETEAPKSMFDACNKEWSAPELLPSVPKDFKEHPDRDLTNYPYPSRPMYPPKTRLLMMPDSWFTAFQKVTGTSGPYLFFGGLFAFLVNKELWVFEEQGHMTVGWILFYLLVSRTAGYKIDAGLYKDYQERVGFFKGLIQEDLKEAVDFRKTSAAQTASFAALKEGMPTSLKDSMQLQLEAAYRKNVQTISNEIKRRIEYLKETEETKARFERDQLLKLINDSVEKQVSQKDFQEKFLQNAIQQLKGIAV	not soluble
